From the Human Domainome abundance scans (Beltran et al. 2025) come the findings set out here.

± gives the uncertainty stated by the source.

First the molecules themselves.
B1: PDZ and LIM domain protein 2, residues 284 to 339; numbered along this chain, Q96JY6 (parent)
chain: HTCEKCSTSIANQAVRIQEGRYRHPGCYTCADCGLNLKMRGHFWVGDELYCEKHAR

The data set covers variants of B1. The experiment in a line: abundance fitness (aPCA) (normalised: wild type 0, dead -1); higher = more abundant; growth selection in yeast, the domain comes from the species named. To be noted: Homo sapiens.
C30P: the abundance fitness was -0.671 ± 0.17. For R16E, the abundance fitness came to 0.037 ± 0.091. R16Y: the abundance fitness came out at 0.029 ± 0.11. The same measure for R16D: -0.091 ± 0.1; for R16N: 0.191 ± 0.14; for R16K: 0.223 ± 0.14. The same measure for R16T: 0.137 ± 0.11; for K38I: -0.703 ± 0.22.

With K38W, the abundance fitness was -0.445 ± 0.13.

Regarding K38G, the abundance fitness came out at 0.103 ± 0.056. Next, K38C: -0.24 ± 0.083; K38T: -0.115 ± 0.12; K38L: -0.702 ± 0.1. On to K38A, for which the abundance fitness was 0.189 ± 0.1. As for L37Q, the abundance fitness is -0.599 ± 0.1. For the variant L37A, the abundance fitness is -0.601 ± 0.071.

In the case of L37C, the abundance fitness was -0.3 ± 0.13. Next, L37H: -0.807 ± 0.17; L37F: -0.262 ± 0.22. The same measure for L37T: -0.395 ± 0.12. For L37P, the abundance fitness was -0.442 ± 0.14. Take L37V: the abundance fitness was -0.109 ± 0.064. On to C6K, for which the abundance fitness is -0.264 ± 0.19.

On to C6H, for which the abundance fitness was -0.535 ± 0.19. With C6N, the abundance fitness was -0.508 ± 0.17. C6R: the abundance fitness was -0.266 ± 0.096.

With C6T, the abundance fitness is -0.48 ± 0.17. Regarding C6F, the abundance fitness is -0.667 ± 0.24. In the case of Q18K, the abundance fitness is -0.141 ± 0.11.

Consider Q18A, for which the abundance fitness turned out to be 0.043 ± 0.062. In the case of Q18D, the abundance fitness is -0.032 ± 0.13. For Q18C, the abundance fitness was -0.087 ± 0.1. Regarding Q18P, the abundance fitness was -0.47 ± 0.075.

On to Q18G, for which the abundance fitness was -0.088 ± 0.066. In the case of Q18N, the abundance fitness is -0.248 ± 0.29. On to Q18F, for which the abundance fitness was -0.303 ± 0.087. As for Y22C, the abundance fitness is -0.348 ± 0.12. Y22T: the abundance fitness is -0.477 ± 0.11. Turning to Y22L, the abundance fitness is -0.349 ± 0.087.

For Y22A, the abundance fitness is -0.269 ± 0.09.

Regarding Y22S, the abundance fitness was -0.292 ± 0.053. Y22I: the abundance fitness is -0.691 ± 0.23.

Consider E19H, for which the abundance fitness was -0.292 ± 0.15. For E19K, the abundance fitness worked out at 0.01 ± 0.07. For A31C, the abundance fitness was -0.146 ± 0.12. With A31T, the abundance fitness was -0.099 ± 0.095. As for A31F, the abundance fitness was 0.039 ± 0.13. For the variant A31V, the abundance fitness was -0.029 ± 0.075. As for A31S, the abundance fitness is -0.103 ± 0.085. The same measure for T29S: -0.092 ± 0.081.

Turning to T29P, the abundance fitness was -0.767 ± 0.28.

As for T29H, the abundance fitness was -0.041 ± 0.09. T29R: the abundance fitness was -0.261 ± 0.057.

With T29V, the abundance fitness is -0.309 ± 0.076. T29N: the abundance fitness is -0.177 ± 0.15.

As to T29E, the abundance fitness is -0.455 ± 0.15. The same measure for Y50T: -0.289 ± 0.098.

In the case of Y50G, the abundance fitness is -0.501 ± 0.069. The same measure for Y50V: 0.072 ± 0.086; for Y50L: -0.039 ± 0.084.

Regarding Y50R, the abundance fitness is -0.008 ± 0.069.

With Y50H, the abundance fitness is -0.083 ± 0.2. Regarding Y50W, the abundance fitness is -0.161 ± 0.076. Regarding Y50E, the abundance fitness is -0.673 ± 0.18.

Take Y50I: the abundance fitness was -0.194 ± 0.18. Take R23P: the abundance fitness was -0.111 ± 0.13. In the case of R23S, the abundance fitness is -0.278 ± 0.072. The same measure for R23F: -0.391 ± 0.23; for R23D: -0.486 ± 0.11.

For the variant R23H, the abundance fitness is -0.302 ± 0.074. For R23N, the abundance fitness was -0.173 ± 0.18.

For the variant R23K, the abundance fitness is -0.315 ± 0.13. The same measure for R23Y: -0.303 ± 0.066; for R23L: -0.212 ± 0.062. As for R23M, the abundance fitness was -0.317 ± 0.12. With R23G, the abundance fitness is -0.457 ± 0.059. L35A: the abundance fitness came to 0.102 ± 0.072. For the variant L35H, the abundance fitness was -0.015 ± 0.089. As to L35W, the abundance fitness was -0.054 ± 0.088.

On to L35I, for which the abundance fitness is 0.05 ± 0.082.

For the variant L35P, the abundance fitness is -0.518 ± 0.14. Consider L35D, for which the abundance fitness worked out at 0.202 ± 0.087.

Take H1M: the abundance fitness came out at 0.268 ± 0.41.

Regarding H1G, the abundance fitness is -0.247 ± 0.36. Regarding Y28E, the abundance fitness was -0.548 ± 0.16.

Y28I: the abundance fitness was -0.452 ± 0.2. With Y28L, the abundance fitness is -0.262 ± 0.098.

Take Y28Q: the abundance fitness is -0.246 ± 0.11. With Y28W, the abundance fitness turned out to be 0.053 ± 0.16. Next, Y28G: -0.471 ± 0.11. Next, Y28N: -0.294 ± 0.12; R40N: 0.21 ± 0.13; R40Y: -0.163 ± 0.12. As for R40S, the abundance fitness was found to be 0.079 ± 0.073. Turning to R40C, the abundance fitness worked out at 0.221 ± 0.1. R40I: the abundance fitness is -0.293 ± 0.12.

For the variant R40Q, the abundance fitness is -0.091 ± 0.11. On to S9P, for which the abundance fitness is -0.376 ± 0.12. For S9Q, the abundance fitness was -0.079 ± 0.12. S9C: the abundance fitness is -0.365 ± 0.073. As to S9T, the abundance fitness was -0.271 ± 0.085. In the case of R21G, the abundance fitness is -0.251 ± 0.058. Regarding R21E, the abundance fitness was -0.286 ± 0.14. Turning to R21D, the abundance fitness is -0.217 ± 0.15. Regarding R21F, the abundance fitness is -0.01 ± 0.14. Regarding R21K, the abundance fitness is 0.002 ± 0.077. As for V15D, the abundance fitness was -0.115 ± 0.11.

As for V15G, the abundance fitness is -0.33 ± 0.06. In the case of V15F, the abundance fitness was -0.38 ± 0.21. V15C: the abundance fitness is -0.317 ± 0.15. For I10S, the abundance fitness is -0.505 ± 0.08. Regarding I10T, the abundance fitness was -0.14 ± 0.15. As to I10G, the abundance fitness was -0.312 ± 0.062. With I10M, the abundance fitness is -0.425 ± 0.092. Regarding I10Y, the abundance fitness was -0.809 ± 0.21. Take I10W: the abundance fitness was -0.488 ± 0.14.

In the case of I10E, the abundance fitness was found to be 0.006 ± 0.099. On to I10N, for which the abundance fitness is -0.119 ± 0.064. As for Q13I, the abundance fitness is -0.778 ± 0.2. The same measure for Q13Y: -0.775 ± 0.35; for Q13R: -0.826 ± 0.1.

Consider Q13P, for which the abundance fitness was -0.227 ± 0.13. As to Q13H, the abundance fitness was -0.767 ± 0.26. The same measure for Q13K: -0.501 ± 0.39. Take K53A: the abundance fitness is -0.198 ± 0.13. Next, K53H: 0.377 ± 0.14; K53W: 0.164 ± 0.11; K53R: -0.124 ± 0.06. The same measure for K53V: 0.007 ± 0.085; for K53N: -0.056 ± 0.094; for R56C: 0.093 ± 0.3. As for R56V, the abundance fitness turned out to be 0.049 ± 0.14. Regarding R56W, the abundance fitness is -0.344 ± 0.084. As for R56L, the abundance fitness amounted to 0.797 ± 0.18. Next, H24L: -0.898 ± 0.077; H24R: -0.435 ± 0.083; H24W: -0.788 ± 0.17. Consider H24N, for which the abundance fitness is -0.345 ± 0.12. Consider H24F, for which the abundance fitness was -0.938 ± 0.19. Take A14Y: the abundance fitness is -0.209 ± 0.22. With A14D, the abundance fitness was -0.33 ± 0.2. Take A14E: the abundance fitness is 0.143 ± 0.084. On to A14Q, for which the abundance fitness is -0.329 ± 0.12. In the case of A14C, the abundance fitness is -0.139 ± 0.18. As to W44M, the abundance fitness was -0.034 ± 0.13. Turning to W44R, the abundance fitness is -0.045 ± 0.073. W44C: the abundance fitness worked out at 0.005 ± 0.15. W44T: the abundance fitness was -0.232 ± 0.14. Regarding W44N, the abundance fitness is -0.24 ± 0.25. For W44S, the abundance fitness was determined as 0.027 ± 0.098. Next, W44L: 0.096 ± 0.057. The same measure for W44Y: 0.128 ± 0.19; for W44A: 0.163 ± 0.062; for W44Q: 0.096 ± 0.13. On to M39P, for which the abundance fitness was 0.422 ± 0.11. Take M39K: the abundance fitness came out at 0.071 ± 0.1.

Consider M39H, for which the abundance fitness was -0.116 ± 0.18. As to M39A, the abundance fitness was found to be 0.226 ± 0.066. As to M39N, the abundance fitness turned out to be 0.095 ± 0.13.

On to N12V, for which the abundance fitness was -0.206 ± 0.057. Take N12A: the abundance fitness was -0.096 ± 0.097. N12C: the abundance fitness is -0.135 ± 0.15.

Turning to N12I, the abundance fitness stood at 0.021 ± 0.12. Regarding N12D, the abundance fitness stood at 0.595 ± 0.1.

As for N12K, the abundance fitness is -0.295 ± 0.073.

As for N12F, the abundance fitness was -0.494 ± 0.25. On to N12W, for which the abundance fitness was -0.78 ± 0.15.
